Legend:
[1] = test system: O=[N+]([O-])c1ccccc1O[C@@H]1O[C@H](CO)[C@H](O)[C@H](O)[C@H]1O; test: o-nitrophenol release, A420, Michaelis-Menten non-linear fit; format: biochemical, Bifidobacterium longum subsp. infantis; conditions: optimum pH 5.0 and optimum temperature 45-55 °C, 0.1-4 mM ONPG
[2] = substrate: O=[N+]([O-])c1ccccc1O[C@@H]1O[C@H](CO)[C@H](O)[C@H](O)[C@H]1O; test: as above; format: biochemical, Bifidobacterium longum; conditions: optimum pH 5.0-6.0 and optimum temperature 45-55 °C, 0.1-4 mM ONPG

Row | Molecule | Km [1] [µM] | kcat [1] [s⁻¹] | kcat/Km [1] [M⁻¹ s⁻¹] | Km [2] [µM] | kcat [2] [s⁻¹] | kcat/Km [2] [M⁻¹ s⁻¹]
1 | Blon_0268 (Bifidobacterium longum subsp. infantis ATCC 15697 = JCM 1222 = DSM 20088) | 600 | 5.11 | 8500 | – | – | –
2 | Blon_2123 (Bifidobacterium longum subsp. infantis ATCC 15697 = JCM 1222 = DSM 20088) (protein) MRARRDFAWPKLLTADGRGIAFGGDYNPDQWPEDVWDDDIRLMGQAGVNTVALAIFSWDRLQPTEDHWNFDWLDRIIDKLGQAGIAVDLASATATAPLWLYENHPEVLPRDKYGHPVNAGSRQSWSPTSPVFKEYALTLCRKLAERYGTNPYVTAWHMGNEYGWNNRDDYSDNALEAFRAWCRRKYGTIDALNQAWGTTFWGQEMTGFDEVLIPRFMGADSMVNPGQKLDFERFGNDMLLDFYKAERDAIAEICPDKPFTTNFMISTDQCCMDYAAWAEEVNFVSNDHYFHEGESHLDELACSDALVDSLALGKPWYVMEHSTSAVQWKPLNTRKRNGETVRDSLAHVAMGADAINFFQWRASAFGAEAFHSAMVPHAGENTKLFRQVCELGATLQALADAGVQGSELAHADTAILFSAESEWATRSETLPSMKLNHWHDVRDWYRAFLNAGARADIVPLAYDWSSYKTIVLPTVLMLSDADTRRLAGFVQDGGRVVVGYATGLLDERFHTWLGGYPGAGDGLLRSMLGVRGEEFNILGTETEDEPSEIRLASTGDSPTMDGAVTRLWQNDVTVAGPHVQVLAAYAGEEANEWELDGTAAITRNTYGEGEAYFLGCDLGVSDLTRFVGGWLAARPQDGRQPEANLRSPASGVTSDVLHTVRQSDDAIFDFYLTRGKSDVELRDIAGEPIVLFRAERGSDGGAYTVHRNGVLVMKRPNPSV | – | – | – | 1060 | 270 | 250000

Reference: article PMC3593662
